How the values were obtained:
His6-S-HsfA4c = His6-S-HsfA4c (Arabidopsis thaliana Col-0, UniProt J7FXE8 1-102); assay: EMSA; EMSA: LightShift kit 1x binding buffer, 50 ng poly(dI-dC), 2.5% glycerol, 0.05% NP-40, 5 mM MgCl2, 100 ng protein, 1.5 ng probe, 30 min, room temperature; pull-down: 50 mM Tris-HCl pH 7.5, 100 mM NaCl, 0.1% Triton X-100, poly(dI-dC), 25 C; conditions: protein: recombinant; tags: His6 (pET-28a); label: 5' biotin; blunt
His6-S-HsfB2a = His6-S-HsfB2a (Arabidopsis thaliana Col-0, UniProt J7G5V7 1-85); assay: as above; conditions: protein: recombinant; tags: His6 (pET-28a); label: 5' biotin; blunt
His6-S-HsfB2a, sequence (J7G5V7 entry or part of it): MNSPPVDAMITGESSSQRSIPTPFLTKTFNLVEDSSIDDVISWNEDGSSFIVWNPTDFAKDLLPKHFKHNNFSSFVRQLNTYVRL

His6-HsfA2 [1] = target: T1, His6-HsfA2 (Arabidopsis thaliana Col-0, UniProt O80982 1-345); assay: as above; conditions: protein: recombinant; tags: His6 (pET-28a); chain copies: 3; label: 5' biotin; blunt
T1 sequence (O80982 whole entry): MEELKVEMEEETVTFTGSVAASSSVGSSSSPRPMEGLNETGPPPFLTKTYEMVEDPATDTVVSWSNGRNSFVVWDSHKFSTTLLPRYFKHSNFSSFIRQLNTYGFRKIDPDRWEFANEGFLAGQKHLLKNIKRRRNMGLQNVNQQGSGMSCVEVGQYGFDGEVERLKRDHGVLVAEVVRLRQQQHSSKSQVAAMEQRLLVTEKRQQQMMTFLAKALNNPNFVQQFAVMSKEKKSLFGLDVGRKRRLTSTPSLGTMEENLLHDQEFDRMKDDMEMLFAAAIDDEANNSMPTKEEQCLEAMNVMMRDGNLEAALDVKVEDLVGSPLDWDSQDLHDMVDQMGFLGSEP

His6-S-HsfB1 = His6-S-HsfB1 (Arabidopsis thaliana Col-0, UniProt J7FYU6 1-86); assay: as above; conditions: protein: recombinant; tags: His6 (pET-28a); label: 5' biotin; blunt
His6-S-HsfB1, sequence (J7FYU6 entry or part of it): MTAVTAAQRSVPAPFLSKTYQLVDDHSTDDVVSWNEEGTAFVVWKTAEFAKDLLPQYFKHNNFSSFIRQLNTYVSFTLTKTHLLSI

His6-tDBD = His6-tDBD (Arabidopsis thaliana Col-0, UniProt J7G1E7 42-103); assay: as above; conditions: protein: recombinant; tags: His6 (pET-28a); label: 5' biotin; blunt
His6-tDBD, sequence (J7G1E7 entry or part of it): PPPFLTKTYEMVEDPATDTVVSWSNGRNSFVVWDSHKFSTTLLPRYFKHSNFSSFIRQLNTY

His6-DBD = His6-DBD (Arabidopsis thaliana Col-0, UniProt O80982 42-135); assay: as above; conditions: protein: recombinant; tags: His6 (pET-28a); label: 5' biotin; blunt
His6-DBD, sequence (O80982 42-135): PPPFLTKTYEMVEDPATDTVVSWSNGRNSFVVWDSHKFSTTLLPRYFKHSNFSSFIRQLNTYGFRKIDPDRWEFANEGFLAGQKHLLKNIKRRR

His6-HsfA2 [2] = target: T1, His6-HsfA2; assay: streptavidin-agarose pull-down; 0 hr prebinding control; EMSA: LightShift kit 1x binding buffer, 50 ng poly(dI-dC), 2.5% glycerol, 0.05% NP-40, 5 mM MgCl2, 100 ng protein, 1.5 ng probe, 30 min, room temperature; pull-down: 50 mM Tris-HCl pH 7.5, 100 mM NaCl, 0.1% Triton X-100, poly(dI-dC), 25 C; conditions: protein: recombinant; tags: His6 (pET-28a); chain copies: 3; label: 5' biotin; blunt

His6-S-HsfA4c, sequence (J7FXE8 entry or part of it): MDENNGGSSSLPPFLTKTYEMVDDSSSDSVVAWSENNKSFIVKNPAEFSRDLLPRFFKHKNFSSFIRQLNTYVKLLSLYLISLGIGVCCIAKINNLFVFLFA

Binder	binding result (His6-S-HsfA4c)	binding result (His6-S-HsfB2a)	binding result (His6-HsfA2 [1])	binding result (His6-S-HsfB1)	binding result (His6-tDBD)	binding result (His6-DBD)	binding result (His6-HsfA2 [2])
3xHRE probe (dsDNA) DNA 1: GAAGAAGGAAGAAGGAAGAAG DNA 2: CTTCTTCCTTCTTCCTTCTTC	binds	no binding	no binding	binds	binds	–	–
HSE probe (dsDNA) DNA 1: TCGACTTCTAGAAGCTTCCAGAAATTAG DNA 2: CTAATTTCTGGAAGCTTCTAGAAGTCGA	–	–	–	–	–	binds	binds

From PMC12582567, “Short heat shock factor A2 regulates heat resistance and growth balance in Arabidopsis”
